Values of other authors, collected in publication PMC2737186.

Molecular target: Cys1 (UniProt position 252, VVKNKCLAEGT)

Mtu RecA intein (form studied by Shingledecker, Jiang and Paulus 2000) (Mycobacterium tuberculosis)
pKa: 8.2
